The values below come from publication PMC7736783 (Nucleic Acids Research, 2020).

In this series the target is MTA1 (BAH-ELM2-SANT-ZnF);HDAC1;MBD2 (Homo sapiens?;Homo sapiens?;Homo …, UniProt Q13330;Q13547;Q9UBB5 1-453;1-482;145-411, ||). The series can be described thus: EMSA; 1 uM DNA with 1- to 10-fold excess of complex; single bound species; EMSA: 20 mM HEPES pH 7.0, 75 mM potassium acetate, 2 mM DTT, 20 min on ice; 5% acrylamide gel in 0.5x TB. Particulars: protein: recombinant;recombinant;recombinant; tags: His10-Flag3 N-terminal, removed by TEV;none;none; chain copies: 2;2;1; label: none (ethidium bromide stain); blunt (annealed complementary oligonucleotides). On the technique in general: A gel shift assay detects complexes by their altered migration in electrophoresis.
Chain of MTA1 (BAH-ELM2-SANT-ZnF);HDAC1;MBD2 (Q13330 1-453, chain 1 of 3): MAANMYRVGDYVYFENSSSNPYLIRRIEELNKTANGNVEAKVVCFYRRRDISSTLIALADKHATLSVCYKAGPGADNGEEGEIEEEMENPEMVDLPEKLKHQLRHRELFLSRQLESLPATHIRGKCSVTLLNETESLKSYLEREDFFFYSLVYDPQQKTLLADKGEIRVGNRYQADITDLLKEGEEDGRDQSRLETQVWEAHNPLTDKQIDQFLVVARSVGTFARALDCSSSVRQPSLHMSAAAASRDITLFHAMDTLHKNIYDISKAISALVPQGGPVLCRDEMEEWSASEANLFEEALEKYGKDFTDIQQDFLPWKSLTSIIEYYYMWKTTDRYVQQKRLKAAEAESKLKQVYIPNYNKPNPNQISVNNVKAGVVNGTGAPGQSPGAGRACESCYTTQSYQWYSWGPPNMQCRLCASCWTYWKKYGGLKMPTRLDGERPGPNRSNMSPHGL
Chain of MTA1 (BAH-ELM2-SANT-ZnF);HDAC1;MBD2 (Q13547 whole entry, chain 2 of 3): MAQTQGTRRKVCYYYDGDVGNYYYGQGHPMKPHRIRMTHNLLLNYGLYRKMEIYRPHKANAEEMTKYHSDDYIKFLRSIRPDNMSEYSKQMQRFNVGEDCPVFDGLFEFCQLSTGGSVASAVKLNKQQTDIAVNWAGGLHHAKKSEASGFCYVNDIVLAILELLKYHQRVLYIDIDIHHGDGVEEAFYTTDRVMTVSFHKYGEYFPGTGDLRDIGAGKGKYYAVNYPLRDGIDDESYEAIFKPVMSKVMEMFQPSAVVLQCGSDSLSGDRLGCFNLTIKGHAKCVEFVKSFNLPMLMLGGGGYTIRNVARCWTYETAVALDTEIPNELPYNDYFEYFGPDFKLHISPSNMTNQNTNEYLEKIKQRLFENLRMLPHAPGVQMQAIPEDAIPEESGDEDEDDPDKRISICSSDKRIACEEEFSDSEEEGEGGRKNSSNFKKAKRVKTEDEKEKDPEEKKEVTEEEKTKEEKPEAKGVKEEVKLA
Chain of MTA1 (BAH-ELM2-SANT-ZnF);HDAC1;MBD2 (Q9UBB5 145-411, chain 3 of 3): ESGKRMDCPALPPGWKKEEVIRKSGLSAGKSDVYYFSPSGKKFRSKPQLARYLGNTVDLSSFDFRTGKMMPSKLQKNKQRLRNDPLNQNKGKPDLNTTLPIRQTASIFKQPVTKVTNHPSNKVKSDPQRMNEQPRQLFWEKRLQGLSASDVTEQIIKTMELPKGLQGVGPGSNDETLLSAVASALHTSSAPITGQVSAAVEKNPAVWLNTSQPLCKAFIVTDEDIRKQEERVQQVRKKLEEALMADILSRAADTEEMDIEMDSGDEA

B1: methylated DNA duplex 15 nt (dsDNA)
DNA 1: GGAATCGGCTCATGC
DNA 2: GCATGAGCCGATTCC
modifications: 5-methylcytosine at C6 of strand 1 (printed mC in CpG); methylation of the complementary strand not stated
On to B1, for which the binding result was “binds”.
